Here are results for one molecule from patent US8575093B2, “Composition and method for treating Streptococcus pneumoniae infection” (priority 2006, dated 2013).

Test [1] has as its system Unencapsulated S. pneumoniae serotype 3 strain 3.8DW. Kind of test: Inhibition of S. pneumoniae adhesion to A549 cells, strain 3.8DW. The conditions noted are these: 12 μg/well, protein added to cells; FIG. 5B. Format: cell-based, Streptococcus pneumoniae. As to the method: (§1) Inhibition of S. pneumoniae adhesion to A549 cells by addition of phages: A549 cells (type II epithelial lung carcinoma cells; ATCC, Rockville, Md., USA) were grown in DMEM medium supplemented with 10% foetal calf serum with penicillin and streptomycin (100 μg/ml each) at 37° C. in a humidified incubator. A549 cells (2.5×10^4/well) were cultured on fibronectin coated plates, to increase A549 cell adhesion to the wells and prevent their detachment during washings, in the absence of antibiotic for 24 hours at which time the cells reached confluence (5×10^4 cells/well on average). The plates were blocked with 1% gelatine for 1 hour and 10^6 CFU bacteria were added per well. The adhesion of S. pneumoniae to uncoated plates was negligible (<80 CFU/ml). The number of bacteria that adhered to fibronectin coated plates (8000±100 SD CFU/ml on average) was subtracted afterwards to determine the net number of bacteria that adhered to the A549 cells only. rFBA at the denoted concentrations (ranging from 5-30 μg/ml) was added to the cultured cells and incubated for an hour. Following extensive washings S. pneumoniae (10^6 CFU) were added for 1 hour incubation. To identify phages able to interfere in bacterial adhesion the bacteria were preincubated with the phages for 1 hour centrifuged and added to the cultured cells. […]

The test system of test [2] is S. pneumoniae encapsulated serotype 3 strain WU2. Kind of test: Inhibition of S. pneumoniae adhesion to A549 cells, strain WU2. Format: cell-based, Streptococcus pneumoniae. The conditions noted are these: 0.5 μg/well, protein added to cells; FIG. 5A. The method, then:
as §1

B1: rFBA: Recombinant Fructose Bisphosphate Aldolase (FBA; SP0605 Streptococcus pneumoniae TIGR4), 33.5 kDa FBA-HAT fusion protein (protein)
chain: MAIVSAEKFVQAARDNGYAVGGFNTNNLEWTQAILRAAEAKKAPVLIQTSMGAAKYMGGYKVARNLIANLVESMGITVPVAIHLDHGHYEDALECIEVGYTSIMFDGSHLPVEENLKLAKEVVEKAHAKGISVEAEVGTIGGEEDGIIGKGELAPIEDAKAMVETGIDFLAAGIGNIHGPYPVNWEGLDLDHLQKLTEALPGFPIVLHGGSGIPDEQIQAAIKLGVAKVNVNTECQIAFANATRKFARDYEANEAEYDKKKLFDPRKFLADGVKAIQASVEERIDVFGSEGKA
modifications: left off: small tags and cut ends
notes: Recombinant Fructose Bisphosphate Aldolase (FBA; SP0605 Streptococcus pneumoniae TIGR4), 33.5 kDa FBA-HAT fusion protein
With B1, the entries for the “inhibition of adhesion to A549 cells” value in test [1] and in test [2] were 92% and 63%, respectively.
